Data as given in patent publication US20220143024A1, “METHODS OF USING IMIPRIDONES” (Board of Regents, The University of Texas System, priority 2019, published 2022).

Tests used:
Experiment in all cases: BioID-MS +ONC201
MPST (human) = MPST (human) (UniProt P25325)
MRPL46 (human) = MRPL46 (human) (UniProt Q9H2W6)
MARS2 (human) = MARS2 (human) (UniProt Q96GW9)
WARS2 (human) = WARS2 (human) (UniProt Q9UGM6)
NDUFAF4 (human) = NDUFAF4 (human) (UniProt Q9P032)
SLC27A2 (human) = SLC27A2 (human) (UniProt O14975)
MMAB (human) = MMAB (human) (UniProt Q96EY8)
EFHA1 (human) = EFHA1 (human) (UniProt Q8IYU8)
C2orf56 (human) = C2orf56 (human) (UniProt Q7L592)
MRRF (human) = MRRF (human) (UniProt Q96E11)
TAC01 (human) = TAC01 (human) (UniProt Q9BSH4)
MRPL55 (human) = MRPL55 (human) (UniProt Q7Z7F7)
PPIF (human) = PPIF (human) (UniProt P30405)
HSPE1 (human) = HSPE1 (human) (UniProt P61604)
ATPAF1 (human) = ATPAF1 (human) (UniProt Q5TC12)
SPRYD4 (human) = SPRYD4 (human) (UniProt Q8WW59)
CPOX (human) = CPOX (human) (UniProt P36551)
MRPS24 (human) = MRPS24 (human) (UniProt Q96EL2)
NDUFS2 (human) = NDUFS2 (human) (UniProt O75306)
PRKCA (human) = PRKCA (human) (UniProt P17252)
GRSF1 (human) = GRSF1 (human) (UniProt Q12849)
NDUFV2 (human) = NDUFV2 (human) (UniProt P19404)
ACADSB (human) = ACADSB (human) (UniProt P45954)
ACADM (human) = ACADM (human) (UniProt P11310)
COX5A (human) = COX5A (human) (UniProt P20674)
NUDT1 (human) = NUDT1 (human) (UniProt P36639)
MRPS36 (human) = MRPS36 (human) (UniProt P82909)
AFG3L2 (human) = AFG3L2 (human) (UniProt Q9Y4W6)
MRPS6 (human) = MRPS6 (human) (UniProt P82932)
NDUFAF2 (human) = NDUFAF2 (human) (UniProt Q8N183)
NIPSNAP2 (human) = NIPSNAP2 (human) (UniProt O75323)
SUPV3L1 (human) = SUPV3L1 (human) (UniProt Q8IYB8)
PTPMT1 (human) = PTPMT1 (human) (UniProt Q8WUK0)
NDUFAF7 (human) = NDUFAF7 (human) (UniProt Q7L592)
COX4I1 (human) = COX4I1 (human) (UniProt P13073)
RG9MTD1 (human) = RG9MTD1 (human) (UniProt Q7L0Y3)
RTN4IP1 (human) = RTN4IP1 (human) (UniProt Q8WWV3)
ADCK3 (human) = ADCK3 (human) (UniProt Q8NI60)
ERAL1 (human) = ERAL1 (human) (UniProt O75616)
TFAM (human) = TFAM (human) (UniProt Q00059)
NDUFS4 (human) = NDUFS4 (human) (UniProt O43181)
CHCHD3 (human) = CHCHD3 (human) (UniProt Q9NX63)
C20orf7 (human) = C20orf7 (human) (UniProt Q5TEU4)
ACN9 (human) = ACN9 (human) (UniProt Q9NRP4)
GTPBP10 (human) = GTPBP10 (human) (UniProt A4D1E9)
ABCB7 (human) = ABCB7 (human) (UniProt O75027)
SDHB (human) = SDHB (human) (UniProt P21912)
GCDH (human) = GCDH (human) (UniProt Q92947)
NADKD1 (human) = NADKD1 (human) (UniProt Q4G0N4)
MRPS11 (human) = MRPS11 (human) (UniProt P82912)
ACSS1 (human) = ACSS1 (human) (UniProt Q9NUB1)
Chain of ACSS1 (human) (Q9NUB1 38-689 limits assumed): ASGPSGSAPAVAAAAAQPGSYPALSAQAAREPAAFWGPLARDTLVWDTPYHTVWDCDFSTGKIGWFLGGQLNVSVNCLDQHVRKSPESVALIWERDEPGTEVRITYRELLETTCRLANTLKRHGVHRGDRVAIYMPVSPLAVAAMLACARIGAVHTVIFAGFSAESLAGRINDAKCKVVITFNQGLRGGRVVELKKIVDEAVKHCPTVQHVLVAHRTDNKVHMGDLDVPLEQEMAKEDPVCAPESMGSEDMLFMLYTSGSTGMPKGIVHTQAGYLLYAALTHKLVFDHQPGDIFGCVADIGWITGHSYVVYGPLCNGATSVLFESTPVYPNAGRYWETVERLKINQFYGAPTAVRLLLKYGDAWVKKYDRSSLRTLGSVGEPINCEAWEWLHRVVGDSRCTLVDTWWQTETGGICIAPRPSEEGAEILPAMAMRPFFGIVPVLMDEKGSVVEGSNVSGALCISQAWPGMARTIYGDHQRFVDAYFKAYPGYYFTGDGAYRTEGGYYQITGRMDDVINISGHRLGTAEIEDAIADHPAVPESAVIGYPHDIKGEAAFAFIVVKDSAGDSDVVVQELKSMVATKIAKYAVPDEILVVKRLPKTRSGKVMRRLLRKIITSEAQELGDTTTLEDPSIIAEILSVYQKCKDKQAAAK

Chain of GRSF1 (human) (Q12849 118-480 limits assumed): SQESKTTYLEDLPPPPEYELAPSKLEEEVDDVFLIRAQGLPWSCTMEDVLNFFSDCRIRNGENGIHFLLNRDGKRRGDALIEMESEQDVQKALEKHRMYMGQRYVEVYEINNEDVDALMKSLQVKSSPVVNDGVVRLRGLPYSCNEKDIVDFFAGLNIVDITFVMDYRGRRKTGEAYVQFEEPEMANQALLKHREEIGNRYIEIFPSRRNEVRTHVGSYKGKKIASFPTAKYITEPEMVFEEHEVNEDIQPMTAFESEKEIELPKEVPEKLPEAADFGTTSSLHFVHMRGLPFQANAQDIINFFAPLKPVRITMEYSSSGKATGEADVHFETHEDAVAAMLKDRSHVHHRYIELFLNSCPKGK
Chain of NDUFV2 (human) (P19404 33-249 limits assumed): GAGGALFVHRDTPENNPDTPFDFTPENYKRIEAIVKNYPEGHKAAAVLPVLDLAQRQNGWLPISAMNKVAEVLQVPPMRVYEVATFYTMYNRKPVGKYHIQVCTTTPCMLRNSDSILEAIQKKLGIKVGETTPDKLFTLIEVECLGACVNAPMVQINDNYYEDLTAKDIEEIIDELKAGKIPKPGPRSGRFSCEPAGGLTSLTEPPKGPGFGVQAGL
Chain of ACADM (human) (P11310 26-421 limits assumed): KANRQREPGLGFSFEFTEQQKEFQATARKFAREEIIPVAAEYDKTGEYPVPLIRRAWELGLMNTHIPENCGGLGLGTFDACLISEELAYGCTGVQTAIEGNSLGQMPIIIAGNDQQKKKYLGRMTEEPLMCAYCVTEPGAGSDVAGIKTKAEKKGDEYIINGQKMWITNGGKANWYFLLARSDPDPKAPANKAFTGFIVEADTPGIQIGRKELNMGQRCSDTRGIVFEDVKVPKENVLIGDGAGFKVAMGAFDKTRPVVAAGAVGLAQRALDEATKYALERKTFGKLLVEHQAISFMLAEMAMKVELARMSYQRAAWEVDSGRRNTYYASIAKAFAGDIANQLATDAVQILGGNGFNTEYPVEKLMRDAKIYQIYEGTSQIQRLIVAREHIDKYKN
Chain of RTN4IP1 (human) (Q8WWV3 41-396 limits assumed): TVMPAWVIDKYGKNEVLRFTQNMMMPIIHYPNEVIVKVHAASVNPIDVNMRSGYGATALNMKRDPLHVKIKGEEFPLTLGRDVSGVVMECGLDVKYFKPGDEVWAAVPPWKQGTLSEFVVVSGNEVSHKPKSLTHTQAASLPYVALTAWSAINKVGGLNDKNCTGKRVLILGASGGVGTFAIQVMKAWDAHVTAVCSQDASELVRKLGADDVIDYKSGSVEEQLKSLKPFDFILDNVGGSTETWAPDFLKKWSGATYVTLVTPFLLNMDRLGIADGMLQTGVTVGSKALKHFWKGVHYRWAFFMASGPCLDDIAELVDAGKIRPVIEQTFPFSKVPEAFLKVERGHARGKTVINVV
Chain of COX5A (human) (P20674 42-150 limits assumed): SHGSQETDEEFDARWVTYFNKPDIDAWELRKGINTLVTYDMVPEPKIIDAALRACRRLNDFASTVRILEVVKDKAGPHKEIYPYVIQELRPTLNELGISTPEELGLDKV
Chain of WARS2 (human) (Q9UGM6 19-360 limits assumed): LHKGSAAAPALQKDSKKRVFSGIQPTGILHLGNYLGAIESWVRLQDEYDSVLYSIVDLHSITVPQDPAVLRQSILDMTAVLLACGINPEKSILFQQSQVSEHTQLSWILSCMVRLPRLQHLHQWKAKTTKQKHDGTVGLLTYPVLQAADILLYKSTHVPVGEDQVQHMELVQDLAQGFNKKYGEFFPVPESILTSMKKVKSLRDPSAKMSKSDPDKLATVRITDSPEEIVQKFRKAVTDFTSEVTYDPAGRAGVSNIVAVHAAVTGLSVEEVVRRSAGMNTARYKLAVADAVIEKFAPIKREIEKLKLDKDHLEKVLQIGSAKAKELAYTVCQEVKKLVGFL
Chain of ACN9 (human) (Q9NRP4 31-125 limits assumed): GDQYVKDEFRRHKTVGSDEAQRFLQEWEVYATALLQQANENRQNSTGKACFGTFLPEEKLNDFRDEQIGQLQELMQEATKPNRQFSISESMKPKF
Chain of CHCHD3 (human) (Q9NX63 2-227 limits assumed): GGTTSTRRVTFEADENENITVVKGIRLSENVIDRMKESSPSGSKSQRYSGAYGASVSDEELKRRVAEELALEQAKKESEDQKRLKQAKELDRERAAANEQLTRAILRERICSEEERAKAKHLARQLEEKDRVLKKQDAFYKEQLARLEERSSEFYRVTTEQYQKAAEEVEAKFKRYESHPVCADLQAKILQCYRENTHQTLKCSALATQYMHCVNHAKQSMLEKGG
Chain of PPIF (human) (P30405 30-207 limits assumed): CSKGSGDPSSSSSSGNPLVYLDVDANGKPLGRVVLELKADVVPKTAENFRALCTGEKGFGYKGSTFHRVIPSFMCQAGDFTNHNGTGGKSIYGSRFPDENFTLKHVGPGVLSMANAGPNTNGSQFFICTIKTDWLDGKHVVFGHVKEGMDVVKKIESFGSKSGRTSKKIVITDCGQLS
Chain of HSPE1 (human) (P61604 2-102 limits assumed): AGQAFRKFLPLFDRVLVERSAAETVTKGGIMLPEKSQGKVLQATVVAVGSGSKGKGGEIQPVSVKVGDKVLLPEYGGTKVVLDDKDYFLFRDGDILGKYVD
Chain of C20orf7 (human) (Q5TEU4 37-345 limits assumed): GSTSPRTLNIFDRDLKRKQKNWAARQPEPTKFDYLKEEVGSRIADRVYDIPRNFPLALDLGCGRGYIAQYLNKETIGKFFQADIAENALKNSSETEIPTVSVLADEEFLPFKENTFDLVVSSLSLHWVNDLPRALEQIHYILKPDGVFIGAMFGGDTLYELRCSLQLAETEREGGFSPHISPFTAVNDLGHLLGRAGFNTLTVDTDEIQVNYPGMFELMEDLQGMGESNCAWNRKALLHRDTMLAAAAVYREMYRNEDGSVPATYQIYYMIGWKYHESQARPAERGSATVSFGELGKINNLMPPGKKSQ
Chain of CPOX (human) (P36551 111-454 limits assumed): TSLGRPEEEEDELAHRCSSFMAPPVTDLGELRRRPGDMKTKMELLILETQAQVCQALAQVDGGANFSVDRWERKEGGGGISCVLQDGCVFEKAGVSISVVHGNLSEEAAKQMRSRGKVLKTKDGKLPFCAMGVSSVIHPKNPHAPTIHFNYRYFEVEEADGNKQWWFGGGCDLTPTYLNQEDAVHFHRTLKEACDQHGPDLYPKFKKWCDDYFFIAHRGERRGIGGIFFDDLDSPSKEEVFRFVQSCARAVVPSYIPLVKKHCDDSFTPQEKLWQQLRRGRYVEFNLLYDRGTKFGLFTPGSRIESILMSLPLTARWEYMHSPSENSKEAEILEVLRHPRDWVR
Chain of NDUFAF2 (human) (Q8N183 whole entry): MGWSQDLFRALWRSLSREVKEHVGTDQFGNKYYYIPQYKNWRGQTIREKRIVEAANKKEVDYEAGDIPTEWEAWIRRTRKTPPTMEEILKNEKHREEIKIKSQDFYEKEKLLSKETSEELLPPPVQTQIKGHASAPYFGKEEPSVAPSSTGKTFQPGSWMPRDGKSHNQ
Chain of TFAM (human) (Q00059 43-246 limits assumed): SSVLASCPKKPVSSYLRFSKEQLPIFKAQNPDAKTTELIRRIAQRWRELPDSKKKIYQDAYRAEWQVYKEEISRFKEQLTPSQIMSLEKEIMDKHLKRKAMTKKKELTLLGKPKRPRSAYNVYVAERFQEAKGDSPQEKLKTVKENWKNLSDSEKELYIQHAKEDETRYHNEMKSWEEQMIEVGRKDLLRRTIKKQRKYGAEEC
Chain of MPST (human) (P25325 2-297 limits assumed): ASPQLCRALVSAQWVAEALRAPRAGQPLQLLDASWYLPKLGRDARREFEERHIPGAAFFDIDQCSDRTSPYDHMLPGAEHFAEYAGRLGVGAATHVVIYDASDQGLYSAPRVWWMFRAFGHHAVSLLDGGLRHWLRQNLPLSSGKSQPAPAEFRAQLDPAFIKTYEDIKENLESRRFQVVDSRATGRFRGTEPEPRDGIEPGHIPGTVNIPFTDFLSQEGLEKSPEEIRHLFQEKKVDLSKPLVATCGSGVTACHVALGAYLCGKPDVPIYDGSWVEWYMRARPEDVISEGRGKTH
Chain of ERAL1 (human) (O75616 44-437 limits assumed): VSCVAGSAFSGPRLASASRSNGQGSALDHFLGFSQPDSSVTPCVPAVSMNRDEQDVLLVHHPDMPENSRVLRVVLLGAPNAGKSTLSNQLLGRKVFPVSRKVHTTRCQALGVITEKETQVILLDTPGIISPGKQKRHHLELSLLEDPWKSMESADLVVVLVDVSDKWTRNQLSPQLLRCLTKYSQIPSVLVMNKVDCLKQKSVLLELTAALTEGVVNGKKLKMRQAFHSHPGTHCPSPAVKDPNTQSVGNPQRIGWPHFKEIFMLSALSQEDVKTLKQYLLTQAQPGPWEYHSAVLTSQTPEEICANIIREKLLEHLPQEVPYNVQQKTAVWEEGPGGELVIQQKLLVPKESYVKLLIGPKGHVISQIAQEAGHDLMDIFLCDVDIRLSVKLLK

Substance: FlagBirA-ClpP (WT) (from UniProt P06709 1-321; Q16740 57-277) (enzyme)
- Log2 Fold change (vs control) (MPST (human)): -4.46 log2
- Log2 Fold change (vs control) (MRPL46 (human)): -6.09 log2
- Log2 Fold change (vs control) (MARS2 (human)): -4.52 log2
- Log2 Fold change (vs control) (WARS2 (human)): -1.27 log2
- Log2 Fold change (vs control) (NDUFAF4 (human)): -1.11 log2
- Log2 Fold change (vs control) (SLC27A2 (human)): -1.81 log2
- Log2 Fold change (vs control) (MMAB (human)): -0.37 log2
- Log2 Fold change (vs control) (EFHA1 (human)): -0.47 log2
- Log2 Fold change (vs control) (C2orf56 (human)): -2.44 log2
- Log2 Fold change (vs control) (MRRF (human)): -5.49 log2
- Log2 Fold change (vs control) (TAC01 (human)): -4.82 log2
- Log2 Fold change (vs control) (MRPL55 (human)): -5.25 log2
- Log2 Fold change (vs control) (PPIF (human)): -1.81 log2
- Log2 Fold change (vs control) (HSPE1 (human)): -0.36 log2
- Log2 Fold change (vs control) (ATPAF1 (human)): -2.17 log2
- Log2 Fold change (vs control) (SPRYD4 (human)): -1.26 log2
- Log2 Fold change (vs control) (CPOX (human)): -2.12 log2
- Log2 Fold change (vs control) (MRPS24 (human)): -4.81 log2
- Log2 Fold change (vs control) (NDUFS2 (human)): -2.44 log2
- Log2 Fold change (vs control) (PRKCA (human)): -3.58 log2
- Log2 Fold change (vs control) (GRSF1 (human)): -6.34 log2
- Log2 Fold change (vs control) (NDUFV2 (human)): -5.96 log2
- Log2 Fold change (vs control) (ACADSB (human)): -1.76 log2
- Log2 Fold change (vs control) (ACADM (human)): -1.06 log2
- Log2 Fold change (vs control) (COX5A (human)): -2.87 log2
- Log2 Fold change (vs control) (NUDT1 (human)): -1 log2
- Log2 Fold change (vs control) (MRPS36 (human)): -2.58 log2
- Log2 Fold change (vs control) (AFG3L2 (human)): -0.14 log2
- Log2 Fold change (vs control) (MRPS6 (human)): -4.52 log2
- Log2 Fold change (vs control) (NDUFAF2 (human)): -7.94 log2
- Log2 Fold change (vs control) (NIPSNAP2 (human)): -0.31 log2
- Log2 Fold change (vs control) (SUPV3L1 (human)): -0.12 log2
- Log2 Fold change (vs control) (PTPMT1 (human)): -0.48 log2
- Log2 Fold change (vs control) (NDUFAF7 (human)): -1.89 log2
- Log2 Fold change (vs control) (COX4I1 (human)): -2.74 log2
- Log2 Fold change (vs control) (RG9MTD1 (human)): -1.3 log2
- Log2 Fold change (vs control) (RTN4IP1 (human)): -1.5 log2
- Log2 Fold change (vs control) (ADCK3 (human)): -1.91 log2
- Log2 Fold change (vs control) (ERAL1 (human)): -6.19 log2
- Log2 Fold change (vs control) (TFAM (human)): -1.61 log2
- Log2 Fold change (vs control) (NDUFS4 (human)): -5.93 log2
- Log2 Fold change (vs control) (CHCHD3 (human)): -3.46 log2
- Log2 Fold change (vs control) (C20orf7 (human)): -1.21 log2
- Log2 Fold change (vs control) (ACN9 (human)): -5.46 log2
- Log2 Fold change (vs control) (GTPBP10 (human)): -4.91 log2
- Log2 Fold change (vs control) (ABCB7 (human)): -0.45 log2
- Log2 Fold change (vs control) (SDHB (human)): -0.82 log2
- Log2 Fold change (vs control) (GCDH (human)): -0.17 log2
- Log2 Fold change (vs control) (NADKD1 (human)): -2.04 log2
- Log2 Fold change (vs control) (MRPS11 (human)): -4.25 log2
- Log2 Fold change (vs control) (ACSS1 (human)): -4.46 log2
